Broadly, the Kd is the free concentration of one partner at which half of the binding sites on the other are occupied at equilibrium, for simple one-to-one binding. High values mean weaker binding, low ones tighter binding.

This note sets out measurements from patent US20200199241A1 (Chugai, published 2020).

Assay [1] addresses T1, human FcγRIa (human, UniProt P12314 16-292, limits assumed).
T1 construct: also called CD64
As to the kind of experiment: SPR (Biacore), binding amount relative to IL6R-BF648/IL6R-L = 100.

The target in assay [2] is T2, human FcγRIIa type R (human, UniProt P12318 36-217).
T2 construct: also called FcγRIIaR; FcγRIIa(R)
T2 chain: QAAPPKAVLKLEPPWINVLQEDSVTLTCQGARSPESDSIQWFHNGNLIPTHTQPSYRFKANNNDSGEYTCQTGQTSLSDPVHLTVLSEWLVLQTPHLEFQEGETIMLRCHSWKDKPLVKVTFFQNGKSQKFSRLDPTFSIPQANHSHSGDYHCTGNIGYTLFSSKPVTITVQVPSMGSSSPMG
The description is as above.

The target in assay [3] is T3, human FcγRIIa type H (human, UniProt P12318 36-217).
T3 construct: also called FcγRIIaH; FcγRIIa(H)
T3 sequence: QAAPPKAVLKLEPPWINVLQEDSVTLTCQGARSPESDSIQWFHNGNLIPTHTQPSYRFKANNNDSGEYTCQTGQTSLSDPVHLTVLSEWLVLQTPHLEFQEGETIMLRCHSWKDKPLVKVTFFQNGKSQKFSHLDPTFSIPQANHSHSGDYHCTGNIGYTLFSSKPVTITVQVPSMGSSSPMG
Described as above.

The target of assay [4] is T4, human FcγRIIb (human, UniProt P31994 43-217, limits assumed).
T4 construct: also called FcγIIB
T4 sequence: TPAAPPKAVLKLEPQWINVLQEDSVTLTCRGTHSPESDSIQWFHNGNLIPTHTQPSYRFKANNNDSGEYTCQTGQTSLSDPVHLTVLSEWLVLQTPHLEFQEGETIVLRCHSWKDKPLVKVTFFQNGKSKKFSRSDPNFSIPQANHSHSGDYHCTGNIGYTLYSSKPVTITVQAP
The assay is described as above.

For assay [5], the target named is T5, FcγRIa (human, UniProt P12314 16-292, limits assumed).
T5 construct: also called CD64
As to the kind of experiment: SPR (Biacore), method of Example 14. (In SPR one partner is held on a chip, and binding of the other changes the refractive index at the surface.)

In assay [6] the target is T6, FcγRIIa type R (human, UniProt P12318 36-217).
T6 construct: also called FcγRIIaR; FcγRIIa(R)
T6 chain: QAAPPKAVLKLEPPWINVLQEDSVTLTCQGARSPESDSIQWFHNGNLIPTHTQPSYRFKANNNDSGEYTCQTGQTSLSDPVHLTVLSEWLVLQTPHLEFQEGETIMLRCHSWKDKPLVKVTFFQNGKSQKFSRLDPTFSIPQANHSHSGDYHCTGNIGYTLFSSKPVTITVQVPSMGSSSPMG
As to the kind of experiment: SPR (Biacore), method of Example 14.

Assay [7] deals with T7, FcγRIIa type H (human, UniProt P12318 36-217).
T7 construct: also called FcγRIIaH; FcγRIIa(H)
T7 sequence: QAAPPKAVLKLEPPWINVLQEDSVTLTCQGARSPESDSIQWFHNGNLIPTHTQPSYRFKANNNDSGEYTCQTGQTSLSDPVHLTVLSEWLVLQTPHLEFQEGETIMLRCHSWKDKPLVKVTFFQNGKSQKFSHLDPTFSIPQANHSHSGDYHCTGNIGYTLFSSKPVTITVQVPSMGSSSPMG
As to the kind of experiment: SPR (Biacore), method of Example 14.

For assay [8], the target named is T8, FcγRIIb (human, UniProt P31994 43-217, limits assumed).
T8 construct: also called FcγIIB; CD32
T8 sequence: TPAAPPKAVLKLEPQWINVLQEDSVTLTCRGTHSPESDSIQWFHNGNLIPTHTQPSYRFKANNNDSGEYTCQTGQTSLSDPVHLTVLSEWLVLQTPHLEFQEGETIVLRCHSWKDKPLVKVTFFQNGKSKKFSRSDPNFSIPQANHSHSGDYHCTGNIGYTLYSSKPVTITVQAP
As to the kind of experiment: SPR (Biacore), method of Example 14.

The target in assay [9] is T8, FcγRIIb. The experiment in a line: ratio of SPR KD values, parent IL6R-B3/IL6R-L.
Source text: Furthermore, KD(IIaR)/KD(IIb) and KD(IIaH)/KD(IIb) in the table respectively represent the value obtained by dividing the KD value of each variant for FcγRIIaR by the KD value of each variant for FcγRIIb, and the value obtained by dividing the KD value of each variant for FcγRIIaH by the KD value of each variant for FcγRIIb. KD(IIb) of the parent polypeptide/KD(IIb) of the altered polypeptide refers to the value obtained by dividing the KD value of the parent polypeptide for FcγRIIb by the KD value of each variant for FcγRIIb.

T5 sequence (P12314 16-292 limits assumed): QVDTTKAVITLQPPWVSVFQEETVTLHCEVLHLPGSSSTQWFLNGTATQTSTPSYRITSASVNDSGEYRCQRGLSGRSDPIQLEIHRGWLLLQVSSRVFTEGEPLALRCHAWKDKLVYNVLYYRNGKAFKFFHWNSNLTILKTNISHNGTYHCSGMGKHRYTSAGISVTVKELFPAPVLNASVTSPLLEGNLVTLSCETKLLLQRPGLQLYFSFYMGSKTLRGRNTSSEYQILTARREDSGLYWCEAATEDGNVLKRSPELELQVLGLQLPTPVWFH
T1 sequence (P12314 16-292 limits assumed): as above

B1: IL6R-BP112/IL6R-L (antibody, human IgG1)
heavy: QVQLQESGPGLVKPSETLSLTCAVSGHSISHDHAWSWVRQPPGEGLEWIGFISYSGITNYNPSLQGRVTISRDNSKNTLYLQMNSLRAEDTAVYYCARSLARTTAMDYWGEGTLVTVSSASTKGPSVFPLAPSSKSTSGGTAALGCLVKDYFPEPVTVSWNSGALTSGVHTFPAVLQSSGLYSLSSVVTVPSSSLGTQTYICNVNHKPSNTKVDKKVEPKSCDKTHTCPPCPAPELLGGDSVFLFPPKPKDTLMISRTPEVTCVVVDVSHEDGEVKFNWYVDGVEVHNAKTKPREEQYNSTYRVVSVLTVLHQDWLNGKEYKCKVSNKALPAPIEKTISKAKGQPREPQVYTLPPSRDELTKNQVSLTCLVKGFYPSDIAVEWESNGQPENNYKTTPPVLDSDGSFFLYSKLTVDKSRWQQGNVFSCSVMHEALHNHYTQESLSLSP
light: DIQMTQSPSSLSASVGDRVTITCRASQDISSYLNWYQQKPGKAPKLLIYYTSRLHSGVPSRFSGSGSGTDFTFTISSLQPEDIATYYCQQGNTLPYTFGQGTKVEIK
notes: Alteration introduced into IL6R-B3; also called P238D/P271G
As for B1, the relative binding in [1] is 119; in [2], 340; in [3] it was 113; in assay [4], 157.

B2: IL6R-BP210/IL6R-L (antibody, human IgG1)
heavy: QVQLQESGPGLVKPSETLSLTCAVSGHSISHDHAWSWVRQPPGEGLEWIGFISYSGITNYNPSLQGRVTISRDNSKNTLYLQMNSLRAEDTAVYYCARSLARTTAMDYWGEGTLVTVSSASTKGPSVFPLAPSSKSTSGGTAALGCLVKDYFPEPVTVSWNSGALTSGVHTFPAVLQSSGLYSLSSVVTVPSSSLGTQTYICNVNHKPSNTKVDKKVEPKSCDKTHTCPPCPAPELLGDDSVFLFPPKPKDTLMISRTPEVTCVVVDVSDEDGEVKFNWYVDGVEVHNAKTKPREEQYNSTYRVVSVLTVLHQDWLNGKEYKCKVSNKALPRPIEKTISKAKGQPREPQVYTLPPSRDELTKNQVSLTCLVKGFYPSDIAVEWESNGQPENNYKTTPPVLDSDGSFFLYSKLTVDKSRWQQGNVFSCSVMHEALHNHYTQESLSLSP
light: DIQMTQSPSSLSASVGDRVTITCRASQDISSYLNWYQQKPGKAPKLLIYYTSRLHSGVPSRFSGSGSGTDFTFTISSLQPEDIATYYCQQGNTLPYTFGQGTKVEIK
notes: Anti-IL-6R human IgG1 variant; copies: 2 + 2
As to B2, the Kd amounted to 65 nM in assay [5], 1000 nM in assay [6], 95000 nM in assay [7] and 39 nM in assay [8]. The “KD(IIb) of the parent polypeptide/KD(IIb) of altered polypeptide” value (“KD(IIb)” below) in [9] was determined as 78.4 fold.

B3: IL6R-BP117/IL6R-L (antibody, human IgG1)
heavy: QVQLQESGPGLVKPSETLSLTCAVSGHSISHDHAWSWVRQPPGEGLEWIGFISYSGITNYNPSLQGRVTISRDNSKNTLYLQMNSLRAEDTAVYYCARSLARTTAMDYWGEGTLVTVSSASTKGPSVFPLAPSSKSTSGGTAALGCLVKDYFPEPVTVSWNSGALTSGVHTFPAVLQSSGLYSLSSVVTVPSSSLGTQTYICNVNHKPSNTKVDKKVEPKSCDKTHTCPPCPAPELLGGDSVFLFPPKPKDTLMISRTPEVTCVVVDVSHEDPEVKFNWYVDGVEVHNAKTKPREEQYNSTYRVVSVLTVLHQDWLNGKEYKCKVSNDALPAPIEKTISKAKGQPREPQVYTLPPSRDELTKNQVSLTCLVKGFYPSDIAVEWESNGQPENNYKTTPPVLDSDGSFFLYSKLTVDKSRWQQGNVFSCSVMHEALHNHYTQESLSLSP
light: DIQMTQSPSSLSASVGDRVTITCRASQDISSYLNWYQQKPGKAPKLLIYYTSRLHSGVPSRFSGSGSGTDFTFTISSLQPEDIATYYCQQGNTLPYTFGQGTKVEIK
notes: Alteration introduced into IL6R-B3; also called P238D/K326D
Consider B3, for which the relative binding was 124 in assay [1], 166 in assay [2], 96 in [3] and 118 in assay [4].

B4: IL6R-BP205/IL6R-L (antibody, human IgG1)
heavy: QVQLQESGPGLVKPSETLSLTCAVSGHSISHDHAWSWVRQPPGEGLEWIGFISYSGITNYNPSLQGRVTISRDNSKNTLYLQMNSLRAEDTAVYYCARSLARTTAMDYWGEGTLVTVSSASTKGPSVFPLAPSSKSTSGGTAALGCLVKDYFPEPVTVSWNSGALTSGVHTFPAVLQSSGLYSLSSVVTVPSSSLGTQTYICNVNHKPSNTKVDKKVEPKSCDKTHTCPPCPAPDLLGGDSVFLFPPKPKDTLMISRTPEVTCVVVDVSHEDGEVKFNWYVDGVEVHNAKTKPREEQDNSTYRVVSVLTVLHQDWLNGKEYKCKVSNKALPRPIEKTISKAKGQPREPQVYTLPPSRDELTKNQVSLTCLVKGFYPSDIAVEWESNGQPENNYKTTPPVLDSDGSFFLYSKLTVDKSRWQQGNVFSCSVMHEALHNHYTQESLSLSP
light: DIQMTQSPSSLSASVGDRVTITCRASQDISSYLNWYQQKPGKAPKLLIYYTSRLHSGVPSRFSGSGSGTDFTFTISSLQPEDIATYYCQQGNTLPYTFGQGTKVEIK
notes: as for B2
For the molecule B4, the Kd in assay [5] was found to be 7.7 nM; in assay [6], 3500 nM; in assay [7], 28000 nM; in assay [8], 160 nM. For the same molecule, the “KD(IIb)” value in assay [9] stood at 19.4 fold.

B5: IL6R-BP126/IL6R-L (antibody, human IgG1)
heavy: QVQLQESGPGLVKPSETLSLTCAVSGHSISHDHAWSWVRQPPGEGLEWIGFISYSGITNYNPSLQGRVTISRDNSKNTLYLQMNSLRAEDTAVYYCARSLARTTAMDYWGEGTLVTVSSASTKGPSVFPLAPSSKSTSGGTAALGCLVKDYFPEPVTVSWNSGALTSGVHTFPAVLQSSGLYSLSSVVTVPSSSLGTQTYICNVNHKPSNTKVDKKVEPKSCDKTHTCPPCPAPELLGGDSVFLFPPKPKDTLMISRTPEVTCVVVDVSHEDPEVKFNWYVDGVEVHNAKTKPREEQYNSTYRVVSVLTVLHQDWLNGKEYKCKVSNLALPAPIEKTISKAKGQPREPQVYTLPPSRDELTKNQVSLTCLVKGFYPSDIAVEWESNGQPENNYKTTPPVLDSDGSFFLYSKLTVDKSRWQQGNVFSCSVMHEALHNHYTQESLSLSP
light: DIQMTQSPSSLSASVGDRVTITCRASQDISSYLNWYQQKPGKAPKLLIYYTSRLHSGVPSRFSGSGSGTDFTFTISSLQPEDIATYYCQQGNTLPYTFGQGTKVEIK
notes: Alteration introduced into IL6R-B3; also called P238D/K326L
With B5, the relative binding was 113 in [1], 167 in [2], 132 in assay [3] and 103 in assay [4].

B6: IL6R-BP120/IL6R-L (antibody, human IgG1)
heavy: QVQLQESGPGLVKPSETLSLTCAVSGHSISHDHAWSWVRQPPGEGLEWIGFISYSGITNYNPSLQGRVTISRDNSKNTLYLQMNSLRAEDTAVYYCARSLARTTAMDYWGEGTLVTVSSASTKGPSVFPLAPSSKSTSGGTAALGCLVKDYFPEPVTVSWNSGALTSGVHTFPAVLQSSGLYSLSSVVTVPSSSLGTQTYICNVNHKPSNTKVDKKVEPKSCDKTHTCPPCPAPELLGGDSVFLFPPKPKDTLMISRTPEVTCVVVDVSHEDPEVKFNWYVDGVEVHNAKTKPREEQYNSTYRVVSVLTVLHQDWLNGKEYKCKVSNEALPAPIEKTISKAKGQPREPQVYTLPPSRDELTKNQVSLTCLVKGFYPSDIAVEWESNGQPENNYKTTPPVLDSDGSFFLYSKLTVDKSRWQQGNVFSCSVMHEALHNHYTQESLSLSP
light: DIQMTQSPSSLSASVGDRVTITCRASQDISSYLNWYQQKPGKAPKLLIYYTSRLHSGVPSRFSGSGSGTDFTFTISSLQPEDIATYYCQQGNTLPYTFGQGTKVEIK
notes: Alteration introduced into IL6R-B3; also called P238D/K326E
With B6, the relative binding is 125 in assay [1], 175 in assay [2] and 114 in assay [4].

B7: IL6R-BP212/IL6R-L (antibody, human IgG1)
heavy: QVQLQESGPGLVKPSETLSLTCAVSGHSISHDHAWSWVRQPPGEGLEWIGFISYSGITNYNPSLQGRVTISRDNSKNTLYLQMNSLRAEDTAVYYCARSLARTTAMDYWGEGTLVTVSSASTKGPSVFPLAPSSKSTSGGTAALGCLVKDYFPEPVTVSWNSGALTSGVHTFPAVLQSSGLYSLSSVVTVPSSSLGTQTYICNVNHKPSNTKVDKKVEPKSCDKTHTCPPCPAPDLLGGDSVFLFPPKPKDTLMISRTPEVTCVVVDVSDEDGEVKFNWYVDGVEVHNAKTKPREEQDNSTYRVVSVLTVLHQDWLNGKEYKCKVSNKALPRPIEKTISKAKGQPREPQVYTLPPSRDELTKNQVSLTCLVKGFYPSDIAVEWESNGQPENNYKTTPPVLDSDGSFFLYSKLTVDKSRWQQGNVFSCSVMHEALHNHYTQESLSLSP
light: DIQMTQSPSSLSASVGDRVTITCRASQDISSYLNWYQQKPGKAPKLLIYYTSRLHSGVPSRFSGSGSGTDFTFTISSLQPEDIATYYCQQGNTLPYTFGQGTKVEIK
notes: as for B2
As to B7, the dissociation constant Kd in [5] was found to be 5.2 nM; in [6], 3500 nM; in assay [7], 22000 nM; in [8], 170 nM. The “KD(IIb)” value in assay [9] came to 18.7 fold.
